# Data from patent US20240116985A1 (published 2024).
# Starred links: 1 amine or outer side, 2 acyl side, 3 side chain; linkers in the order of their positions; H or OH if unused. Positions of bridges follow the written chain, without caps; N, C: chain ends. Non-standard residues stand in square brackets, D forms with d. Primed or numbered codes have the meaning given here. No end group written: not given here. *: point of attachment. PyrS2″ = (S)-3-amino-1-((pent-4-en-1-yloxy)carbonyl)pyrrolidine-3-carboxylic acid (stapling residue), C=CCCCOC(=O)N1CC[C@@](N[*:1])(C(=O)[*:2])C1; RdN″ = (R)-4-(((allyloxy)carbonyl)(methyl)amino)-2-amino-2-methylbutanoic acid (stapling residue), C=CCOC(=O)N(C)CC[C@@](C)(N[*:1])C(=O)[*:2]; B5(32) = 2-amino-2-(pent-4-en-1-yl)hept-6-enoic acid (bis-4-pentenylglycine, two alkene side chains), C=CCCCC(CCCC=C)(N[*:1])C(=O)[*:2]; B5(4) = 2,2-bis(4-pentenyl)glycine = 2-amino-2-(pent-4-en-1-yl)hept-6-enoic acid (stitching residue), C=CCCCC(CCCC=C)(N[*:1])C(=O)[*:2]; B5(5) = 2,2-bis(4-pentenyl)glycine, 2-amino-2-(pent-4-en-1-yl)hept-6-enoic acid (stitching residue), C=CCCCC(CCCC=C)(N[*:1])C(=O)[*:2]; PyrS2 = (S)-3-amino-1-((pent-4-en-1-yloxy)carbonyl)pyrrolidine-3-carboxylic acid, C=CCCCOC(=O)N1CC[C@@](N[*:1])(C(=O)[*:2])C1; B5(3) = 2,2-bis(4-pentenyl)glycine (stitching residue), C=CCCCC(CCCC=C)(N[*:1])C(=O)[*:2]; B5 = 2-amino-2-(pent-4-en-1-yl)hept-6-enoic acid, C=CCCCC(CCCC=C)(N[*:1])C(=O)[*:2]; Phe(3-COOH) = N[C@@H](Cc1cccc(C(=O)O)c1)C(=O)O; 2F3MeF = Cc1cccc(C[C@H](N[*:1])C(=O)[*:2])c1F; Phe(2-CF3) = N[C@@H](Cc1ccccc1C(F)(F)F)C(=O)O; S7 = C[C@@](CCCCCC=[*:3])(N[*:1])C(=O)[*:2]; Phe(3-OMe) = COc1cccc(C[C@H](N)C(=O)O)c1; Bta = N[C@@H](Cc1csc2ccccc12)C(=O)O; αAllylPro = C=CC[C@@]1(C(=O)O)CCCN1; tBuAla = CC(C)(C)C[C@H](N)C(=O)O; 3Thi = N[C@@H](Cc1ccsc1)C(=O)O; S8 = C=CCCCCCC[C@](C)(N)C(=O)O; NH(CH2)6NH2 = NCCCCCCN*; Ms = CS(=O)(=O)*
# B1: I-873 (peptide)
# peptide: Ac-[αAllylPro]D[tBuAla][B5(3)]DDAAFN[PyrS2″][3Thi][Bta]QAA
# modifications: staple 1-4, 4-11; not fully specified; printed as Ac-PL3-Asp-Npg-B5-Asp-Asp-Ala-Ala-Phe-Asn-PyrS2-3Thi-BztA-Gln-Ala-Ala
# B2: I-2521 (peptide)
# peptide: Ac-[αAllylPro]D[tBuAla][B5(4)]DXAAFL[PyrS2][Phe(2-CF3)][Bta]S-NH2
# modifications: staple 1-4, 4-11; not fully specified (residue 6); printed as Ac-PL3-Asp-Npg-B5-Asp-[CH2CChCO2H]TriAzDap-Ala-Ala-Phe-Leu-PyrS2-2F3MeF-BztA-Ser-NH2
# B3: I-67: Ac-Ala-Asp-Ile-RdN-Asp-Glu-Ala-Ala-Phe-Gln-S7-Phe-Trp-His-NH2 (stapled peptide) (peptide)
# peptide: Ac-ADI[RdN″]DEAAFQ[S7]FWH-NH2
# modifications: staple 4-11
# notes: This is the later eluting staple isomer composition
# B4: I-724 (peptide)
# peptide: Ac-[αAllylPro]DI[B5]DEAA[Phe(3-OMe)]Q[S8]F[Bta]Q-NH2
# modifications: staple 1-4, 4-11
# notes: also called Ac-PL3-Asp-Ile-B5-Asp-Glu-Ala-Ala-3OMeF-Gln-S8-Phe-BztA-Gln-NH2
# B5: I-882 (peptide)
# peptide: Ac-[αAllylPro]D[tBuAla][B5(3)]DDAAFN[PyrS2″][3Thi][Bta]Q-{NH(CH2)6NH2}
# modifications: staple 1-4, 4-11; not fully specified; printed as Ac-PL3-Asp-Npg-B5-Asp-Asp-Ala-Ala-Phe-Asn-PyrS2-3Thi-BztA-Gln-6AmHex
# B6: I-710 (peptide)
# peptide: Ms-[αAllylPro]DI[B5(5)]DEAAFQ[S8]F[Bta]Q-NH2
# modifications: staple 1-4, 4-11
# notes: separate staple-isomer composition (earlier eluting HPLC peak); also called MeSO2-PL3-Asp-Ile-B5-Asp-Glu-Ala-Ala-Phe-Gln-S8-Phe-BztA-Gln-NH2
# Key:
# [1] = target: T1, B-cat-Halo (Nano-BRET construct expressed in HEK293 cells) (UniProt P35222 1-781); assay: cell-based or functional assay
# T1 sequence (looked up): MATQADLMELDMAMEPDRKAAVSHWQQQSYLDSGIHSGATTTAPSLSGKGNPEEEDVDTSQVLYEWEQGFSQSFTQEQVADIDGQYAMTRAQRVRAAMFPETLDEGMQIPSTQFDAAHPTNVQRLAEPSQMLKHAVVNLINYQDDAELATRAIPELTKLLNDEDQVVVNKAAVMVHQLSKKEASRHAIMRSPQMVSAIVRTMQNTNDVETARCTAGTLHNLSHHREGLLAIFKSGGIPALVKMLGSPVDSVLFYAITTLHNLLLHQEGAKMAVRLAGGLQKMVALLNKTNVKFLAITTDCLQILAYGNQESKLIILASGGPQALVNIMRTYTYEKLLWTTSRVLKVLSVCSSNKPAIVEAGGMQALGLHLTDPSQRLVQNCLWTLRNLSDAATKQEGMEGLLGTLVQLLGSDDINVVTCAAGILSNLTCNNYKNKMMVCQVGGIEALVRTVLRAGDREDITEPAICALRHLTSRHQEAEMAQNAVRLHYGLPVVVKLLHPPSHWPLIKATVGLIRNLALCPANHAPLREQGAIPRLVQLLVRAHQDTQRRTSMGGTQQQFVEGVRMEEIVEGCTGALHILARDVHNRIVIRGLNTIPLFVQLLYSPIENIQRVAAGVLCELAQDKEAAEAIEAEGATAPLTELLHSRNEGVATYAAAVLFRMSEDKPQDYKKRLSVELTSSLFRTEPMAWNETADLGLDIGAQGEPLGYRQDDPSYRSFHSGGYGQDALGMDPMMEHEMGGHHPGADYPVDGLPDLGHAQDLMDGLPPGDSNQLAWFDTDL
# [2] = target: T2, B-cat-Halo (beta-catenin HaloTag construct expressed in HEK293 cells) (UniProt P35222 1-781); assay: cell-based or functional assay
# T2 sequence (looked up): T1 sequence (looked up)
# [3] = target: T3, beta-catenin in DLD1 TCF/LEF luciferase reporter cells (UniProt P35222 1-781); assay: cell-based or functional assay
# T3 sequence (looked up): T1 sequence (looked up)
# [4] = target: T4, full-length beta-Catenin (Uniprot ID P35222) (Homo sapiens (Human), UniProt P35222 2-781); assay: fluorescence polarization competition; peptide titrated against 10 nM full-length beta-catenin with 10 nM 5FAM-TCF4(10-53) probe
# T4 construct: also called bCat; B-Catenin
# T4 sequence: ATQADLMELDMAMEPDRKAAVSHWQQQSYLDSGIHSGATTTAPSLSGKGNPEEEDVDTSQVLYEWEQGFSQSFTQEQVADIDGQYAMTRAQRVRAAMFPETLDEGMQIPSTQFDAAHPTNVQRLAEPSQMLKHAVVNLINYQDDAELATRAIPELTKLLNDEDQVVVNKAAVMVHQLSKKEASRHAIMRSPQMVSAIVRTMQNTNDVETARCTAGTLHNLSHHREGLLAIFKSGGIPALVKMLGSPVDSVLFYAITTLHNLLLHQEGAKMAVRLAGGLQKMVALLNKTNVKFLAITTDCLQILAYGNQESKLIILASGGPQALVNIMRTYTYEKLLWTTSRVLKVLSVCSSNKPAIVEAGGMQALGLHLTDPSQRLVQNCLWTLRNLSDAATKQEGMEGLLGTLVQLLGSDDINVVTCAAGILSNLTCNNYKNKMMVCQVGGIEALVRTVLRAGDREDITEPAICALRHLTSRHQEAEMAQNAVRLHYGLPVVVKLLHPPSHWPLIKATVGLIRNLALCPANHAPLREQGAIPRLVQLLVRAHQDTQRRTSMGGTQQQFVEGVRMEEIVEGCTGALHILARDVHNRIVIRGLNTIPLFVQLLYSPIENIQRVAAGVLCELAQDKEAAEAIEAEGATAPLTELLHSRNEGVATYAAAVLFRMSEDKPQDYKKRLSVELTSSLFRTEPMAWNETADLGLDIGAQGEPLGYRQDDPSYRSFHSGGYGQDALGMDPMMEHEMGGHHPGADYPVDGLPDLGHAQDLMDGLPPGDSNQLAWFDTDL
# Method: (§1) The plate was incubated protected from light for 60 minutes at 20° C. prior to read. Reads were performed on a CLARIOstar plate reader (BMG Labtech) in duplicate, and data were fitted to a 1:1 binding model with hill slope using an in-house script. All provided concentrations are final concentrations.
# [5] = target: T5, beta-catenin in DLD1 TCF/LEF luciferase reporter cells (UniProt P35222 2-781); assay: cell-based or functional assay
# T5 sequence (looked up): T4 sequence
# [6] = target: T6, B-cat-Halo (beta-catenin HaloTag construct expressed in HEK293 cells) (UniProt P35222 1-781); assay: cell-based or functional assay; remark: listed apart in the source
# T6 sequence (looked up): T1 sequence (looked up)
# [7] = target: T7, full-length beta-Catenin (Uniprot ID P35222) (Homo sapiens (Human), UniProt P35222 1-781); assay: fluorescence polarization competition; peptide titrated against full-length beta-catenin + 5FAM-TCF4(10-53)
# T7 construct: also called bCat; B-Catenin
# T7 sequence: T1 sequence (looked up)
# Method: as §1
# B-cat-Halo = target: T8, B-cat-Halo (UniProt P35222 1-781); assay: cell-based or functional assay
# T8 sequence (looked up): T1 sequence (looked up)
# [8] = target: T9, beta-catenin in DLD1 TCF/LEF luciferase reporter cells (UniProt P35222 1-781); assay: cell-based or functional assay; remark: listed apart in the source
# T9 sequence (looked up): T1 sequence (looked up)
binder,measurement,setting,value
B1,NanoBRET IC50,[1],8.9 µM
B2,NanoBRET Abs IC50 (uM); Bcat-Halo / TCF4-Luc in HEK293 cells,[2],5.6 µM
same,DLD1 4% Abs IC50 (uM); TCF/LEF luciferase reporter assay,[3],3 µM
B3,IC50,[4],1.23 µM
"Ac-[αAllylPro]D[tBuAla][B5(4)]D[Phe(3-COOH)]QAFL[PyrS2″][2F3MeF][Bta]A-NH2 (staple 1-4, 4-11) [I-2057]",DLD1 4% Abs IC50,[5],4 µM
same,NanoBRET Abs IC50,[6],1.5 µM
B4,IC50,[7],0.114 µM
"Ac-[αAllylPro]D[tBuAla][B5(4)]D[Phe(3-COOH)]AAFL[PyrS2][3Thi][Bta]NLLLLL-NH2 (staple 1-4, 4-11; also: later eluting staple isomer) [I-2280]",NanoBRET Abs IC50,B-cat-Halo,> 20 µM
same,DLD1 4% Abs IC50,[8],> 20 µM
B5,NanoBRET IC50,[1],22.5 µM
"Ac-[αAllylPro]D[tBuAla][B5(32)]D[Phe(3-COOH)]AAFL[PyrS2][3Thi][Bta]NLLL-NH2 (staple 1-4, 4-11; also: later eluting staple isomer (HPLC peak)) [I-2276]",NanoBRET Abs IC50,B-cat-Halo,4 µM
same,DLD1 4% Abs IC50,[8],3.9 µM
B6,IC50,[7],0.073 µM
